Experimental data reported in publication PMC4210639 (Neuron, 2014).

Target: T1, FLRT3^LRR (leucine-rich repeat domain of mouse FLRT3) (mouse, UniProt Q8BGT1 29-359)
T1 sequence: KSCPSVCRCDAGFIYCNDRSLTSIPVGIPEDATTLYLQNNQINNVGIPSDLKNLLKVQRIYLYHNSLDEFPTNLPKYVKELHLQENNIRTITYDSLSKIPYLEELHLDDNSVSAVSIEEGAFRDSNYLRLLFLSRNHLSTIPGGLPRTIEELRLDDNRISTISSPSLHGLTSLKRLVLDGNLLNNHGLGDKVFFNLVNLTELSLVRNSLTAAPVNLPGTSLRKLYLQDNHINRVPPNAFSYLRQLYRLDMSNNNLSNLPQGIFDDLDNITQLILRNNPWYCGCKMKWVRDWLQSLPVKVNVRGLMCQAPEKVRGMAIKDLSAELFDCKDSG
Experiment: SPR

B1: Unc5A^ecto (human Unc5A ectodomain) (domain or fragment)
chain: not shown
- binding result: binds
